Assay results taken from patent publication US8895281B2, “Method for preparing a site-specific physiologically active polypeptide conjugate” (Hanmi Science Co., Ltd, priority 2009, dated 2014).

How the values were obtained:
[1] = target: GLP-1 receptor (CHO/GLP-1R cell line); experiment: cell-based or functional assay
[2] = target: T1, GLP-1 receptors (Homo sapiens, UniProt P43220); experiment: In-vitro activity: cAMP increase in CHO/GLP-1R cells; type: cell-based; conditions: CHO/GLP-1R cell line; cAMP measured at varying concentrations, EC50 values compared; control Byetta = 100
T1 construct: expressed in transfected cells; host or cells: CHO (CHO/GLP-1R)
Protocol: To measure the efficacy of long acting preparation of exendin-4 by pegylation and pegylation site, a method for measuring the in-vitro activity was used. The measurement of in-vitro activity of GLP-1 is a method for measuring whether cAMP's in the cell was increased after treatment of GLP-1 to CHO cell lines to which GLP-1 receptors was cloned. Specifically, CHO/GLP-1R, a cell line in which […], was treated with GLP-1, exendin-4 and test materials described in Table 1 at varying concentrations.

T1 sequence (P43220 24-463): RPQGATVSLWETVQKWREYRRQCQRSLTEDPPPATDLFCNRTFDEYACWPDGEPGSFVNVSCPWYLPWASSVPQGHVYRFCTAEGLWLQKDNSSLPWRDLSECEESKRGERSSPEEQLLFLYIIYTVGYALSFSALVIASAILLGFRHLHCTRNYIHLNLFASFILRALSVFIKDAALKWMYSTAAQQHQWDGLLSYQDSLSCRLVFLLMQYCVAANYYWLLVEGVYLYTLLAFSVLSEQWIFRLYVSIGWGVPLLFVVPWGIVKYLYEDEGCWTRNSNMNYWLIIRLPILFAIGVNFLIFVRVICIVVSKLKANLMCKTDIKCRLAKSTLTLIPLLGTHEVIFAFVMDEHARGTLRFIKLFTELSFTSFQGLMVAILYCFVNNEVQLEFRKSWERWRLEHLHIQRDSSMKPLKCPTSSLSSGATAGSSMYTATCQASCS
Byetta (Eli Lilly), sequence (P26349 48-86): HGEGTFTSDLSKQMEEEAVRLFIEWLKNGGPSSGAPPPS

Substance	In-vitro activity (%) (cAMP in CHO/GLP-1R cells, EC50 values compared) [1]	In-vitro activity (%) [2]
Byetta (Eli Lilly) (from UniProt P26349 48-86) (peptide)	100%	–
imidazo-acetyl-exendin-4 [CA-exendin-4]	–	77%
